# Laboratory results taken from patent publication US12605458B2, “Antibody-drug conjugate having acidic self-stabilization junction” (priority 2017, dated 2026).
# Columns and labels:
# [1] = SEC-HPLC detection of degree of aggregation; type: physicochemical; conditions: 280 nm
# Method: ADC samples obtained via conjugation were centrifuged at 14,000 rpm for five minutes and the supernatant was taken for analysis. Instrument: Waters e2695 (2489UV/Vis) Chromatography column: TSKgel G3000SWXL (7.8×300 mm, 5 μm) Mobile phase: A: 50 mM PB, 300 mM NaCl, 200 mM Arg, 5% IPA, pH 6.5 Mobile Phase A was eluted isocratically for 30 minutes; flow rate: 0.714 ml/min, column temperature: 25° C., detection wavelength: 280 nm.
# [2] = Plasma stability in vitro (DAR by RP-HPLC after incubation in human plasma); type: in vitro ADME; conditions: 37° C.
# Method: A fixed amount of ADC sample was added to human plasma for which human IgG had already been removed, with each ADC tube prepared in triplicate; next, incubation in a 37° C. water bath was performed for 0 hours and 72 hours, after which the ADC sample was removed and 100 μl of Protein A (MabSelect SuRe™ LX Lot: #10221479GE, washed with PBS) was added to each tube; adsorption was then allowed to proceed under agitation on a vertical mixer for two hours, followed by washing and elution to obtain incubated ADC; the plasma stability of each incubated ADC sample was then determined via RP-HPLC.
# [3] = Hydrophobic interaction chromatography (HIC) assay; type: physicochemical; conditions: eight drug units per antibody, FIG. 4
# Method: ADC analysis was performed using hydrophobic interaction chromatography (HIC). Elution was performed using 0 to 100% Mobile Phase B (MPB), where Mobile Phase A (MPA) consisted of 1.5 M ammonium sulfate and 0.025 M sodium phosphate, and MPB consisted of 0.025 M sodium phosphate and 25% isopropanol. The sample loading volume was approximately 20 μg, and gradient elution was completed in 15 minutes. 280 nm UV was used for detection, and the stronger the […] sample, the later the peak produced.
# Following complete reduction of IgG1 antibody to 8 thiols per antibody according to General Procedure A, corresponding antibody-drug conjugates were prepared via non-specific coupling. ADCs with acidic stabilization junctions and conventional junctions ADC (i.e., MC-VC-PAB-MMAE) with eight drug units per antibody were further separated and purified via hydrophobic interaction chromatography and hydrophobic interaction chromatography (HIC) was used to perform an ADC analysis according to General Procedure C. ADCs with greater hydrophobicity, or larger drug/molecule ratios eluted at later retention times.
substance,measurement,setting,value
MC-VC-PAB-MMAE,Aggregation Rate,[1],32.46%
same,Monomer Ratio,[1],67.51%
same,0 h DAR,"[2]; human plasma with human IgG removed, 0 hours, RP-HPLC",7.2
same,72 h DAR,"[2]; human plasma with human IgG removed, 72 hours, RP-HPLC",2.3
same,drug loss / change in DAR during plasma incubation (in words),"[2]; human plasma, 72 hours",very significant reduction in DAR
same,"HIC retention time (hydrophobicity, in words)",[3],longest retention time
